Experiment [1] concerns the target human CD44v9 (CD44 variant containing exon v9), as expressed on PC9 cells and in human tissues (human) (UniProt P16070). In words: cell-based or functional assay.
Experiment [2] shares this target. In words: FACS titration on PC9 cells (30000 pM to 0.1 pM, 3 fold serial dilution), Alexa488 anti-mouse IgG, MFI.
In experiment [3] the target is human CD44v6 (CD44 variant containing exon v6), as expressed on PC9 cells and in human tissues (human), P16070. In words: cell-based or functional assay.

Here are results for 2 molecules from US20210087289A1.

Chain of UniProt P16070 (P16070 21-742, change not shown): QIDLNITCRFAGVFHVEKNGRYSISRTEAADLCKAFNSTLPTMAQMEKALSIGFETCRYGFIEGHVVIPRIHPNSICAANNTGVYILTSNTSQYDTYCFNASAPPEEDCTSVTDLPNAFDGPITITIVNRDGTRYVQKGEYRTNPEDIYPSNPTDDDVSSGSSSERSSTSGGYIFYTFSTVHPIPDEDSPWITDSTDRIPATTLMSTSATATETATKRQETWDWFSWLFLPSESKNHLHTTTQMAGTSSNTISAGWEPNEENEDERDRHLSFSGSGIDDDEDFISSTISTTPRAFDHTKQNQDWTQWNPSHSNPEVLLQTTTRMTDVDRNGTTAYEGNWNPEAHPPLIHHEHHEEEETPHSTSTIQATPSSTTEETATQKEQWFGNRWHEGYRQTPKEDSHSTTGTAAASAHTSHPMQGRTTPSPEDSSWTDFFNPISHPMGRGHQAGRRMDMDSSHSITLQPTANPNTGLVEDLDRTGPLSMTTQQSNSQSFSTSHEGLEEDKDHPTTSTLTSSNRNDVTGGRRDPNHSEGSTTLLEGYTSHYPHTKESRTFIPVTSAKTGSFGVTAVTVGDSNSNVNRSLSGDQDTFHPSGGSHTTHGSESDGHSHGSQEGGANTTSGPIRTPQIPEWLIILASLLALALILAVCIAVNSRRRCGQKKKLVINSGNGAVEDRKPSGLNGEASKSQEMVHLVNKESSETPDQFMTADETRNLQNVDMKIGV

B1: anti-CD44v9 monoclonal antibody mAb116 (antibody, V domains shown)
VH: QVQLQQSGAELVKPGASVKLSCTASGFNIKDTYMHWVKQRPEQGLEWIGRIDPANGNTKYDPKFQGKATITADTSSNTAYLQLSSLTSEDTAVYYCASRGEGTGFAYWGLGTLVTVSA
VL: DIVMTQSAPSVPVTPGESVSISCRSSKSLLHSNGNTYLYWFLQRPGQSPQLLIHRMSNLASGVPDRFSGSGSGTAFTLRISRVEAEDVGVYYCMQHLEYPFTFGGGTKLEIK
Consider B1, for which the IC50 of PC9 growth inhibition (indirect cytotoxicity, mAb116 with 2 µg/mL MMAE-conjugated goat anti mouse IgG, 72 hrs, CCK8) in experiment [1] came to 0.03 nM. In experiment [2], this molecule registered a Kd of 0.98 nM.

B2: mAb119-ADC (AMT119), mAb119 conjugated with MC-vc-PAB-MMAE (protein)
VH: EVQLQESGPELKKPGETVKISCKASGYIFTNYGMNWVKQAPGKGLKWMGWINTYTGEPTYADDFKGRFAFSLETSASTAYLQINNLKNEDTATYFCARTDYYGSSYWYFDVWGAGTTVTVSS
VL: DIQMTQTTSSLSASLGDRVTITCSASQGISNYLNWYQQKPDGTVKLLIFYTSTLPSGVPSRFSGSGSGTDYSLTIRNLEPEDFATYCCQQYSKFPYTFGGGTKLEIK
modifications: here or on the partner: MC-vc-PAB-MMAE conjugated to the antibody (average DAR about 6); attachment residues and chain not stated
On to B2, for which, in experiment [3], the IC50 of cytotoxicity (growth inhibition) in PC9 cells was 2.6 nM and the IC50 of cytotoxicity (growth inhibition) in TE1 cells turned out to be 39 nM.

For orientation: Kd means a measure of binding affinity in units of concentration. Higher therefore signals a looser complex.
